US20240358767A1, “STEM CELL DIFFERENTIATION AND CHEMICAL COMPOUNDS” (VERTEX PHARMACEUTICALS INCORPORATED, priority 2021, published 2024)
Several values for one entry are separate records, joined by “and”; a condition that tells them apart may be missing. Equal values may be shown once.

Experiments:
Format in all cases: cell-based
human stem cells [1] = assay: Stage 1 differentiation of stem cells (Version A protocol), flow cytometry of Oct4 and Sox17 at completion of Stage 1 (S1C)
Method: (§1) An exemplary base differentiation protocol, Version A, according to the present disclosure, was used for differentiating human stem cells into mature β cells capable of releasing insulin in response to glucose challenge in vitro.
(§2) Version A protocol is a 6-stage stepwise protocol. With Version A protocol, stem cells were treated with reagents in a manner similar to the Version A described in Example 1 of U.S. Patent Publication No. US20220090020A1, which is incorporated by reference herein in its entirety. In some experiments, Version A was modified such that 100 ng/mL Activin A at Stage 1 was replaced with a different concentration of Activin A as described below.
(§3) In one experiment, differentiation of the stem cells was initiated in spinner flasks using Version A protocol, and three different concentrations of Activin A (“AA”), 100 ng/mL (100%), 10 ng/mL (10%), and 5 ng/mL (5%), applied throughout the three days of Stage 1 were tested, while the remaining differentiation steps were kept the same. On QC days, e.g., upon completion of Stage 1 (“S1C”), completion of Stage 3 (“S3C”), or completion of Stage 5 (“S5C”), the cells were examined for their morphology and cell constituents. Specifically, 5 mL of cell cluster suspension solution were taken from the spinner flask, with 1 mL suspension aliquoted into a 24 well plate. Pictures of the cell clusters in the 24-well plate were taken under brightfield microscope. The cell clusters in the remaining 4 mL suspension were dispersed with TrypLE Express (Life Technologies; 12,604,013) at 37° C. for 20 min, fixed with 4% PFA for 20 mins at 4° C., blocked for 1 hour in FACS buffer (5% Donkey Serum and 0.05% Triton-100 in PBS) at room temperature, and stained with various antibodies against cell markers. Stained cells were then measured using an Accuri 6 flow cytometer (BD Biosciences) and analyzed using FlowJo software.
In another experiment, a dose-response test was conducted to examine the effects of different concentrations of Activin A at Stage 1 on stem cell differentiation. Five different concentrations of Activin A were tested: 100 ng/mL (100%), 20 ng/mL (20%), 10 ng/mL (10%), 5 ng/mL (5%), and 0 ng/mL (0%).
(§4) In one experiment, four different conditions for Stage 1 differentiation were tested: 100% Activin A, 10% Activin A, 10% Activin A plus GSK-690693 (“GSK”), or 10% Activin A plus BYL719 (“BYL”). Characterization of cell morphology and cell constituents were conducted similarly as described in EXAMPLE 1. The experiment was repeated for four times. Table 3 summarizes the quantification of flow cytometry analysis results at S1C, S3C, and S5C, and total viable cell yield at S5C for the four runs. In all the four runs, 0.1 μM […] or 0.04 μM BYL719 was applied for 3 days of Stage 1, except that in the last two runs, Run 4 and Run 5, 0.04 μM of BYL719 was applied for only 2 days (days S1d1 and S1d2).
(§5) In one experiment, six different conditions for Stage 1 differentiation were tested: 100% Activin A, 10% Activin A, 10% Activin A plus GSK-690693, 10% Activin A plus BYL719, 10% Activin A plus GSK-690693 and BYL719, or 100% Activin A plus GSK-690693 and BYL719. Characterization of cell morphology and cell constituents were conducted similarly as described in EXAMPLE 1. FIGS. 2A-5E and Table 4 summarize the characterizations of the cells obtained under the six differentiation conditions at different stages.

human stem cells [2] = assay: Version A differentiation, flow cytometry of Pdx1, Cdx2 and Sox2 at completion of Stage 3 (S3C); settings: for S3C Pdx1: Runs 3-5, listed as AA
Method: as §1, §2, §3, §4, §5

human stem cells [3] = assay: Version A differentiation, flow cytometry of Nkx6.1 and Isl1 on day 7 of Stage 6 (S6d7); settings: for S6d7 Nkx6.1 + /Isl1+: day 7 of Stage 6
Method: as §1, §2, §3, §5
In another experiment, the effects of the aforementioned six different conditions for Stage 1 differentiation on Stage 6 differentiation were tested under two Stage 6 medium regimens: regimen 1 (Table 5) and regimen 2 (Table 6).

human stem cells [4] = assay: Version A differentiation, flow cytometry of Nkx6.1 and Isl1 at completion of Stage 5 (S5C)
Method: as §1, §2, §3, §4, §5

human stem cells [5] = assay: Total viable cell yield at S5C; settings: 10% AA (10 ng/mL Activin A) at Stage 1, Runs 4-5, listed as AA
Method: as §1, §2, §4

human stem cells [6] = assay: Cell cluster morphology under brightfield microscope
Method: as §3

[7] = 5% Activin A (5 ng/mL) throughout Stage 1
[8] = 10% AA (10 ng/mL Activin A) at Stage 1
[9] = 10% Activin A (10 ng/mL) throughout Stage 1
[10] = 100% AA (100 ng/mL Activin A) at Stage 1
[11] = 100% Activin A (100 ng/mL) throughout Stage 1
[12] = reduced concentrations of Activin A (10% or 5%) vs 100%
[13] = Stage 6 Regimen 1, 10% AA (10 ng/mL Activin A) at Stage 1
[14] = Stage 6 Regimen 1, 100% AA (100 ng/mL Activin A) at Stage 1
[15] = Stage 6 Regimen 2, 10% AA (10 ng/mL Activin A) at Stage 1
[16] = Stage 6 Regimen 2, 100% AA (100 ng/mL Activin A) at Stage 1

B1: Activin A: growth factor from the TGF-β superfamily; exemplary sequences SEQ ID NO: 1-15 in Table 1 (protein, UniProt P08476 311-426, looked up)
Inhibin beta A chain: GLECDGKVNICCKKQFFVSFKDIGWNDWIIAPSGYHANYCEGECPSHIAGTSGSSLSFHSTVINHYRMRGHSPFANLKSCCVPTKLRPMSMLYYDDGQNIIKKDIQNMIVEECGCS
modifications: Inhibin beta A chain
S1c − Oct4−/Sox17+ (human stem cells [1]; [7]): 76.4%
S1C Sox17 + /Oct4+ (human stem cells [1]; [8]): 3.29%
S1C Sox17+/Oct4− (human stem cells [1]; [8]): 87.1%
S1C Sox17+/Oct4− (human stem cells [1]; 10% AA (10 ng/mL Activin A) at Stage 1, Runs 2-5, listed as AA): 61.6 and 80.5 and 87.1 and 73.8
S1c − Oct4−/Sox17+ (human stem cells [1]; [9]): 87.1%
S1C Sox17 + /Oct4+ (human stem cells [1]; [10]): 3.41%
S1C Sox17+/Oct4− (human stem cells [1]; [10]): 79.1%
S1C Sox17+/Oct4− (human stem cells [1]; 100% AA (100 ng/mL Activin A) at Stage 1, Runs 2-5, listed as AA): 78.2 and 88.2 and 79.1 and 84.5
S1c − Oct4−/Sox17+ (human stem cells [1]; [11]): 79.1%
percentage of Oct4-negative, Sox17-positive cells at S1C (human stem cells [1]; among 100%, 10% and 5% Activin A): not significant difference
percentage of Sox17−/Oct4+ cells at S1C (human stem cells [1]; dose-response test, 100% Activin A (100 ng/mL) at Stage 1): under 1%
percentage of Sox17−/Oct4+ cells at S1C (human stem cells [1]; dose-response test, Activin A reduced from 100% to 20%, 10%, or 5%): did not change significantly
percentage of double negative cells (Sox17-negative, Oct4-negative) at S1C (human stem cells [1]; dose-response test, reduced Activin A (20%, 10%, and 5%) vs 100%): increase
S3c − Cdx2+/Pdx1+ (human stem cells [2]; [7]): 27.0%
S3c− Sox2+/Pdx1+ (human stem cells [2]; [7]): 9.76%
S3c − Cdx2+/Pdx1− (human stem cells [2]; 5% Activin A (5 ng/mL) throughout Stage 1, first line with this head (r7)): 6.22%
S3c − Cdx2+/Pdx1− (human stem cells [2]; 5% Activin A (5 ng/mL) throughout Stage 1, second line with this head (r9)): 3.63%
S3C Pdx1 + /Cdx2+ (human stem cells [2]; [8]): 32.7%
S3C Pdx1 + /Sox2+ (human stem cells [2]; [8]): 3.89%
S3C Pdx1 (human stem cells [2]; [8]): 56.9 and 93.3 and 75.8
S3c − Cdx2+/Pdx1+ (human stem cells [2]; [9]): 32.7%
S3c− Sox2+/Pdx1+ (human stem cells [2]; [9]): 3.89%
S3c − Cdx2+/Pdx1− (human stem cells [2]; 10% Activin A (10 ng/mL) throughout Stage 1, first line with this head (r7)): 1.28%
S3c − Cdx2+/Pdx1− (human stem cells [2]; 10% Activin A (10 ng/mL) throughout Stage 1, second line with this head (r9)): 1.90%
S3C Pdx1 + /Cdx2+ (human stem cells [2]; [10]): 3.21%
S3C Pdx1 + /Sox2+ (human stem cells [2]; [10]): 38.8%
S3C Pdx1 (human stem cells [2]; [10]): 72.7 and 95.3 and 84.61
S3c − Cdx2+/Pdx1+ (human stem cells [2]; [11]): 3.21%
S3c− Sox2+/Pdx1+ (human stem cells [2]; [11]): 38.8%
S3c − Cdx2+/Pdx1− (human stem cells [2]; 100% Activin A (100 ng/mL) throughout Stage 1, first line with this head (r7)): 0.061%
S3c − Cdx2+/Pdx1− (human stem cells [2]; 100% Activin A (100 ng/mL) throughout Stage 1, second line with this head (r9)): 1.29%
cells expressing Cdx2 at S3C (human stem cells [2]; [12]): more
cells expressing Sox2 at S3C (human stem cells [2]; [12]): fewer
S6d7 Nkx6.1 + /Isl1+ (human stem cells [3]; [8]): 35.4%
S6d7 Nkx6.1 + /Isl1+ (human stem cells [3]; [10]): 37.3%
Markers on S6d7 Isl1 + /Nkx6.1+ (human stem cells [3]; [13]): 35.4
Markers on S6d7 Isl1 + /Nkx6.1− (human stem cells [3]; [13]): 5.34
Markers on S6d7 Isl1 + /Nkx6.1+ (human stem cells [3]; [14]): 37.3
Markers on S6d7 Isl1 + /Nkx6.1− (human stem cells [3]; [14]): 7.38
Markers on S6d7 Isl1 + /Nkx6.1+ (human stem cells [3]; [15]): 34.6
Markers on S6d7 Isl1 + /Nkx6.1− (human stem cells [3]; [15]): 5.42
Markers on S6d7 Isl1 + /Nkx6.1+ (human stem cells [3]; [16]): 37.8
Markers on S6d7 Isl1 + /Nkx6.1− (human stem cells [3]; [16]): 7.16
percentage of Nkx6.1-positive cells at S5C (human stem cells [4]; 5% Activin A): reduced percentage
S5c − Nkx6.1+/Isl1+ (human stem cells [4]; [7]): 25.9%
S5c − Nkx6.1+/Isl1− (human stem cells [4]; [7]): 25.3%
S5C Nkx6.1+/Isl1+ (human stem cells [4]; [8]): 32.9%
S5C Nkx6.1+/Isl1+ (human stem cells [4]; 10% AA (10 ng/mL Activin A) at Stage 1, Runs 3-5, listed as AA): 25.2 and 38.7 and 32.9
S5c − Nkx6.1+/Isl1+ (human stem cells [4]; [9]): 32.9%
S5c − Nkx6.1+/Isl1− (human stem cells [4]; [9]): 49.5%
S5c − Nkx6.1+/Isl1− (human stem cells [4]; 10% Activin A (10 ng/mL) throughout Stage 1, listed as AA): 49.5%
S5C Nkx6.1+/Isl1+ (human stem cells [4]; [10]): 32.6%
S5C Nkx6.1+/Isl1+ (human stem cells [4]; 100% AA (100 ng/mL Activin A) at Stage 1, Runs 3-5, listed as AA): 31.5 and 36.6 and 32.6
S5c − Nkx6.1+/Isl1+ (human stem cells [4]; [11]): 32.6%
S5c − Nkx6.1+/Isl1− (human stem cells [4]; [11]): 41.1%
S5c − Nkx6.1+/Isl1− (human stem cells [4]; 100% Activin A (100 ng/mL) throughout Stage 1, listed as AA): 41.1%
St5C yield (human stem cells [5]): 2.56e+06 mL⁻¹ and 4.1968e+06 mL⁻¹
cell cluster morphology at completion of Stage 5 (human stem cells [6]; 5% Activin A): altered morphology
cell cluster morphology at completion of Stage 3 (human stem cells [6]; 10% or 5% Activin A at Stage 1 vs 100% Activin A): altered morphology
cell cluster morphology at completion of Stage 1 (human stem cells [6]; 10% or 5% Activin A vs 100% Activin A, irregular shapes and rough edge): altered morphology
